Consider 1 molecule from patent CN117624352A (UNIV XIAMEN, dated 2024).

In assay [1] the target is T1, Tmem176b表达纯化抗原142-196aa xy02b-hFc-6His(Abclonal) (mouse, UniProt Q9R1Q6 142-196).
T1 construct: range 142-196; also called 体外表达纯化抗原Tmem176b; Tmem176b抗原; not shown: hFc of the xy02b-hFc-6His vector; 6His tag
T1 sequence (looked up): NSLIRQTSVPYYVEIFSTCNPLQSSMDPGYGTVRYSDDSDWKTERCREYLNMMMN
Nature of the assay: Biacore (SPR); antigen coupled to the chip, 6E8 as analyte at 1.5625-50 nM; mean of 3 runs.

The target in assay [2] is T1, Tmem176b表达纯化抗原142-196aa …. Briefly: Capture ELISA; antibody coated at 2 μg/mL, antigen titrated from 0.1 μg/ml in 3-fold steps. On the technique in general: An ELISA detects its analyte on a solid surface through an enzyme-linked reagent.

B1: Tmem176b单克隆抗体6E8 (antibody, V domains shown)
VH: QSVEESGGRLLKPDETLTLTCTVSGFSLSSYAMSWVRQAPGKGLEWIGIISIRGNTYYASWAKGRFTISKTSTTVDLKITSPTTEDTATYFCARNTLYSSGWGGSDLWGQGTLVTVSS
VL: AQVLTQTPSPVSAAVGGTVTINCQASQSVYNNNNLAWYQQKPGQPPKLLIYYASTLASGVSSRFKGSGSGTQFTLTISGVQCDDAATYYCQGEFSCSSADCNAFGGGTEVVVKG
notes: Recombinant rabbit monoclonal antibody; also called α-Tmem176b单抗(6E8); Tmem176b单抗6E8
In the case of B1, the equilibrium dissociation constant (Kd) – broadly, the free concentration of one partner at which half of the binding sites on the other are occupied at equilibrium, for simple one-to-one binding – in assay [1] stood at 0.959 nM. For the same molecule, the EC50 (commonly the concentration at which the effect is half-maximal) in assay [2] is 0.893 ng/mL.
